Measured values: paper PMC4357503

Columns and labels:
GST-Puf1p = biological target: T1, GST-Puf1p (UniProt P47135 1-1091); assay: EMSA
T1 sequence: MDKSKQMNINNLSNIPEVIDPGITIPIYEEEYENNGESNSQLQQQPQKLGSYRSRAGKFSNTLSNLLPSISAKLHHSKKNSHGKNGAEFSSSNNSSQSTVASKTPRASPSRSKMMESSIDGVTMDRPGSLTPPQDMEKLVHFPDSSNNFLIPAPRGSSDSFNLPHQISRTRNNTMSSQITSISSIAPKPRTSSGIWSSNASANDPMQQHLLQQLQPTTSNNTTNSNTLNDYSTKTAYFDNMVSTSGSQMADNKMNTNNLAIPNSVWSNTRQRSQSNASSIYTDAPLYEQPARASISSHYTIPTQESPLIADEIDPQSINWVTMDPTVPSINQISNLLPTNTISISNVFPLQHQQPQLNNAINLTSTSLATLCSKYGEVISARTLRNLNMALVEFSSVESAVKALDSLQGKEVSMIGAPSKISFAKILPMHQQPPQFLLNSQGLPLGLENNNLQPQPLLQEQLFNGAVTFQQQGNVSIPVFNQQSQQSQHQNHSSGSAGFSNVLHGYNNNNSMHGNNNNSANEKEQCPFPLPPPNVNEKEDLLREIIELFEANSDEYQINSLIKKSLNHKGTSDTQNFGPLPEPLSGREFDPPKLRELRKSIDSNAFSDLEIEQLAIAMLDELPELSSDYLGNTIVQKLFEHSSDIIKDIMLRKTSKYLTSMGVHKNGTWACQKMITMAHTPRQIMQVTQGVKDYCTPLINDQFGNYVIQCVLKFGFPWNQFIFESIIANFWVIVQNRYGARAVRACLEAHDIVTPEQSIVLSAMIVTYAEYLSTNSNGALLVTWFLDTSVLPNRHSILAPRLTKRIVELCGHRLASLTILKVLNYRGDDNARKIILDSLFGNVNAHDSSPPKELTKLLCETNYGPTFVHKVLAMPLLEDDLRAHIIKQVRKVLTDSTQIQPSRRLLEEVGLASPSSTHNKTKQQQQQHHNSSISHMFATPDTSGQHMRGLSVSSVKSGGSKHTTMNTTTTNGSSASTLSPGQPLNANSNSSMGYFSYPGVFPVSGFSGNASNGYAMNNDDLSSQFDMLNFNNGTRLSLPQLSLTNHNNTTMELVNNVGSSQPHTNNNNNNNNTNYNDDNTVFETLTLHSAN

GST-Puf4p = biological target: T2, GST-Puf4p (UniProt P25339 1-888); assay: EMSA
T2 sequence: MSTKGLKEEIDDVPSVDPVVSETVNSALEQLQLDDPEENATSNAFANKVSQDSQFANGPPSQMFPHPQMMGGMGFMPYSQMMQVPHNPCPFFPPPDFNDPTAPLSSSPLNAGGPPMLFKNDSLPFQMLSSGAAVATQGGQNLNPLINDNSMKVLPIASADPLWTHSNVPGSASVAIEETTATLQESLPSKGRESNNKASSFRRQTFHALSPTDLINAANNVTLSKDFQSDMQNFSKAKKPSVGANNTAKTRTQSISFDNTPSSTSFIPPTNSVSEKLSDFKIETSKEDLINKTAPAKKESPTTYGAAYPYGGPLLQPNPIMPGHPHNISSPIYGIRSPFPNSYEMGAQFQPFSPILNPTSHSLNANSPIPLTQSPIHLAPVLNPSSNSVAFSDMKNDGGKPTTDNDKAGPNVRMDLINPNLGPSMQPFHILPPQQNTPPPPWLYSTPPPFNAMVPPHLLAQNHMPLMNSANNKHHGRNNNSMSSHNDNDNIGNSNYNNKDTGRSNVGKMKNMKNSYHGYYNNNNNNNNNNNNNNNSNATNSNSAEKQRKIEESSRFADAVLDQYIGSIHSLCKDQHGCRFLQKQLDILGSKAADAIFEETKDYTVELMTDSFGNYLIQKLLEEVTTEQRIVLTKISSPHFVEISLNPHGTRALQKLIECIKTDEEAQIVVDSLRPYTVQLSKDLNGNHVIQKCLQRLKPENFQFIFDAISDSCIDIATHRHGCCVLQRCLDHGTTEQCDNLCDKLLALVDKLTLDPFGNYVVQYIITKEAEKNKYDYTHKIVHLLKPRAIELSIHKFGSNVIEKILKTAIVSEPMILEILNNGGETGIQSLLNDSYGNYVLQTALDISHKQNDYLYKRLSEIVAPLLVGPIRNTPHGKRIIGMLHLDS

B1: YHB1 WT PRE (oWO898) (ssRNA)
RNA: GUAAAGAUUGUGUAUGUAUUUAUAAGAUGAAUA
binding result (GST-Puf1p): binds
binding result (GST-Puf4p): binds
